In paper PMC7041945, “Misfolded proteins bind and activate death receptor 5 to trigger apoptosis during unresolved endoplasmic reticulum stress” (eLife, 2020):

Assays:
HCT116 cells [1] = test: Trypan blue staining, automated cell counting; type: cell-based, Homo sapiens; parameters: key to Trypan blue- / Trypan blue+ / avg Trypan blue- / avg Trypan blue+: % of cells (Trypan blue positive or negative); settings: for avg Trypan blue+ / avg Trypan blue-: avg of Rep 1-3; for Dead concentration / Live concentration / Total Concentration / Viability (%): BF
Protocol: Cells seeded in a 6-well plate were transfected with the specified plasmid for 24 hr and harvested via trypsinization in complete media and ultimately resuspended in 400 μl of media to obtain a concentration of 1.0–3.0 × 10^6 cells/ml. The cell suspension was then mixed 1:1 with 0.4% Trypan blue (Sigma-Aldrich) and incubated at 37°C for 30 min. The percentage of cells staining positive for was then quantified using the Countess II FL Automated Cell Counter (ThermoFisher, catalog # AMQAF1000) default brightfield settings with disposable slides.

HCT116 cells [2] = test: Annexin V (and SytoxBlue) flow cytometry for apoptosis; type: cell-based, Homo sapiens; settings: for Mean ± SEM (Fig 1S2D): n=3
Protocol: Cells seeded in a 6-well plate were transfected with the specified plasmid for 24 hr and harvested via trypsinization in complete media to allow a 30 min recovery at 37°C. The samples were then centrifuged at 500xg for 5 min and resuspended In 150 μl of a 1:20 dilution of Annexin V-AlexaFluor 647 conjugate (Thermo Scientific #A23204). Samples were transferred to a 96-well U-bottom plate and incubated in the dark for 15 min at RT. The distribution of apoptotic cells was determined by flow cytometry on a BD LSR II.

[3] = hct chop 62, biological replicate 1 (05.22.2019)
[4] = hct chop 125 (ng), biological replicate 1 (05.22.2019)
[5] = hct chop 125 (ng), biological replicate 2 (05.24.2019)
[6] = hct chop 125 (ng), biological replicate 3 (05.24.2019)
[7] = hct chop 250 (ng), biological replicate 1 (05.22.2019)
[8] = hct chop 250 (ng), biological replicate 2 (05.24.2019)
[9] = hct chop 250 (ng), biological replicate 3 (05.24.2019)
[10] = hct chop 500 (ng), biological replicate 1 (05.22.2019)
[11] = hct chop 500 (ng), biological replicate 2 (05.24.2019)
[12] = hct chop 500 (ng), biological replicate 3 (05.24.2019)
[13] = hct chop 1000 (ng), biological replicate 1 (05.24.2019)
[14] = hct chop 1000 (ng), biological replicate 2 (05.24.2019)
[15] = hct chop 1000 (ng), biological replicate 3 (05.24.2019)

B1: CHOP: CHOP (canonical isoform) expression vector, expression of CHOP in absence of ER stress (protein, UniProt P35638 1-169, looked up)
DNA damage-inducible …: MAAESLPFSFGTLSSWELEAWYEDLQEVLSSDENGGTYVSPPGNEEEESKIFTTLDPASLAWLTEEEPEPAEVTSTSQSPHSPDSSQSSLAQEEEEEDQGRTRKRKQSGHSPARAGKQRMKEKEQENERKVAQLAEENERLKQEIERLTREVEATRRALIDRMVNLHQA
modifications: expression vector
notes: CHOP (canonical isoform) expression vector, expression of CHOP in absence of ER stress
Trypan blue+ (HCT116 cells [1]; CHOP - 125 ng, Rep 1): 4.216
Trypan blue- (HCT116 cells [1]; CHOP - 125 ng, Rep 1): 95.7841
Trypan blue+ (HCT116 cells [1]; CHOP - 125 ng, Rep 2): 3.766
Trypan blue- (HCT116 cells [1]; CHOP - 125 ng, Rep 2): 96.2338
Trypan blue+ (HCT116 cells [1]; CHOP - 125 ng, Rep 3): 4.155
Trypan blue- (HCT116 cells [1]; CHOP - 125 ng, Rep 3): 95.8447
avg Trypan blue+ (HCT116 cells [1]; CHOP - 125 ng): 4.046
avg Trypan blue- (HCT116 cells [1]; CHOP - 125 ng): 95.9542
Trypan blue+ (HCT116 cells [1]; CHOP - 250 ng, Rep 1): 6.303
Trypan blue- (HCT116 cells [1]; CHOP - 250 ng, Rep 1): 93.6968
Trypan blue+ (HCT116 cells [1]; CHOP - 250 ng, Rep 2): 12.2829
Trypan blue- (HCT116 cells [1]; CHOP - 250 ng, Rep 2): 87.7171
Trypan blue+ (HCT116 cells [1]; CHOP - 250 ng, Rep 3): 5.723
Trypan blue- (HCT116 cells [1]; CHOP - 250 ng, Rep 3): 94.2771
avg Trypan blue+ (HCT116 cells [1]; CHOP - 250 ng): 8.103
avg Trypan blue- (HCT116 cells [1]; CHOP - 250 ng): 91.897
Trypan blue+ (HCT116 cells [1]; CHOP - 500 ng, Rep 1): 14.1844
Trypan blue- (HCT116 cells [1]; CHOP - 500 ng, Rep 1): 85.8156
Trypan blue+ (HCT116 cells [1]; CHOP - 500 ng, Rep 2): 6.367
Trypan blue- (HCT116 cells [1]; CHOP - 500 ng, Rep 2): 93.633
Trypan blue+ (HCT116 cells [1]; CHOP - 500 ng, Rep 3): 6.466
Trypan blue- (HCT116 cells [1]; CHOP - 500 ng, Rep 3): 93.534
avg Trypan blue+ (HCT116 cells [1]; CHOP - 500 ng): 9.006
avg Trypan blue- (HCT116 cells [1]; CHOP - 500 ng): 90.9942
Trypan blue+ (HCT116 cells [1]; CHOP - 1000 ng, Rep 1): 8.481
Trypan blue- (HCT116 cells [1]; CHOP - 1000 ng, Rep 1): 91.5194
Trypan blue+ (HCT116 cells [1]; CHOP - 1000 ng, Rep 2): 6.72
Trypan blue- (HCT116 cells [1]; CHOP - 1000 ng, Rep 2): 93.2796
Trypan blue+ (HCT116 cells [1]; CHOP - 1000 ng, Rep 3): 4.533
Trypan blue- (HCT116 cells [1]; CHOP - 1000 ng, Rep 3): 95.4674
avg Trypan blue+ (HCT116 cells [1]; CHOP - 1000 ng): 6.578
avg Trypan blue- (HCT116 cells [1]; CHOP - 1000 ng): 93.4221
PARP cleavage and trypan blue staining vs misfolded-protein stress (HCT116 cells [1]; comparable CHOP-induced DR5 protein, no ER stress): drastically lower levels of PARP cleavage and trypan blue staining
Dead concentration (HCT116 cells [1]; [3]): 1.35E+05
Live concentration (HCT116 cells [1]; [3]): 2.23E+06
Total Concentration (HCT116 cells [1]; [3]): 2.36E+06
Viability (%) (HCT116 cells [1]; [3]): 94.2928%
Dead concentration (HCT116 cells [1]; [4]): 1.47E+05
Live concentration (HCT116 cells [1]; [4]): 3.33E+06
Total Concentration (HCT116 cells [1]; [4]): 3.48E+06
Viability (%) (HCT116 cells [1]; [4]): 95.7841%
Dead concentration (HCT116 cells [1]; [5]): 3.40E+05
Live concentration (HCT116 cells [1]; [5]): 8.69E+06
Total Concentration (HCT116 cells [1]; [5]): 9.03E+06
Viability (%) (HCT116 cells [1]; [5]): 96.2338%
Dead concentration (HCT116 cells [1]; [6]): 8.03E+05
Live concentration (HCT116 cells [1]; [6]): 1.85E+07
Total Concentration (HCT116 cells [1]; [6]): 1.93E+07
Viability (%) (HCT116 cells [1]; [6]): 95.8447%
Dead concentration (HCT116 cells [1]; [7]): 2.17E+05
Live concentration (HCT116 cells [1]; [7]): 3.23E+06
Total Concentration (HCT116 cells [1]; [7]): 3.44E+06
Viability (%) (HCT116 cells [1]; [7]): 93.6968%
Dead concentration (HCT116 cells [1]; [8]): 5.81E+05
Live concentration (HCT116 cells [1]; [8]): 4.15E+06
Total Concentration (HCT116 cells [1]; [8]): 4.73E+06
Viability (%) (HCT116 cells [1]; [8]): 87.7171%
Dead concentration (HCT116 cells [1]; [9]): 6.69E+05
Live concentration (HCT116 cells [1]; [9]): 1.10E+07
Total Concentration (HCT116 cells [1]; [9]): 1.17E+07
Viability (%) (HCT116 cells [1]; [9]): 94.2771%
Dead concentration (HCT116 cells [1]; [10]): 3.52E+05
Live concentration (HCT116 cells [1]; [10]): 2.13E+06
Total Concentration (HCT116 cells [1]; [10]): 2.48E+06
Viability (%) (HCT116 cells [1]; [10]): 85.8156%
Dead concentration (HCT116 cells [1]; [11]): 2.99E+05
Live concentration (HCT116 cells [1]; [11]): 4.40E+06
Total Concentration (HCT116 cells [1]; [11]): 4.70E+06
Viability (%) (HCT116 cells [1]; [11]): 93.633%
Dead concentration (HCT116 cells [1]; [12]): 3.40E+05
Live concentration (HCT116 cells [1]; [12]): 4.92E+06
Total Concentration (HCT116 cells [1]; [12]): 5.26E+06
Viability (%) (HCT116 cells [1]; [12]): 93.534%
Dead concentration (HCT116 cells [1]; [13]): 2.82E+05
Live concentration (HCT116 cells [1]; [13]): 3.04E+06
Total Concentration (HCT116 cells [1]; [13]): 3.32E+06
Viability (%) (HCT116 cells [1]; [13]): 91.5194%
Dead concentration (HCT116 cells [1]; [14]): 2.93E+05
Live concentration (HCT116 cells [1]; [14]): 4.07E+06
Total Concentration (HCT116 cells [1]; [14]): 4.36E+06
Viability (%) (HCT116 cells [1]; [14]): 93.2796%
Dead concentration (HCT116 cells [1]; [15]): 1.88E+05
Live concentration (HCT116 cells [1]; [15]): 3.95E+06
Total Concentration (HCT116 cells [1]; [15]): 4.14E+06
Viability (%) (HCT116 cells [1]; [15]): 95.4674%
Difference between means (HCT116 cells [2]; CHOP - 125 ng vs. empty, Welch's correction): 0.4983 ± 1.264
Mean ± SEM (Fig 1S2D) (HCT116 cells [2]; CHOP - 125 ng): 4.046 ± 0.1409, n=3
Difference between means (HCT116 cells [2]; CHOP - 250 ng vs. CHOP - 125 ng, Welch's correction): 4.057 ± 2.101
Mean ± SEM (Fig 1S2D) (HCT116 cells [2]; CHOP - 250 ng): 8.103 ± 2.097, n=3
Difference between means (HCT116 cells [2]; CHOP - 500 ng vs. CHOP - 125 ng, Welch's correction): 4.960 ± 2.593
Difference between means (HCT116 cells [2]; CHOP - 500 ng vs. CHOP - 250 ng, unpaired t test): 0.9028 ± 3.332
Difference between means (HCT116 cells [2]; CHOP - 500 ng vs. MPZ-GFP, unpaired t test): -28.90 ± 5.936
Difference between means (HCT116 cells [2]; CHOP - 500 ng vs. empty, unpaired t test): 5.458 ± 2.878
Mean ± SEM (Fig 1S2D) (HCT116 cells [2]; CHOP - 500 ng): 9.006 ± 2.589, n=3
